# Assay results: patent US20220251222A1, “IL-6Ralpha/IL-8R BISPECIFIC BINDING AGENTS FOR INHIBITING CANCER CELL MIGRATION” (The Johns Hopkins University, priority 2019, published 2022)
# Molecular target: human IL-6 (residues 3-185) displayed on the surface of yeast (human) (UniProt P05231)
# Experiment: flow cytometry titration of IL-6Rα ECD on IL-6-displaying yeast
substance,measurement,value
"human IL-6Rα extracellular domain (ECD), residues 89-303 of the mature protein, with C-terminal biotin acceptor peptide and hexahistidine, biotinylated (from UniProt P08887 108-322) (receptor)",Kd,88 nM
